This assay deals with human serum protein. Put plainly: human serum (1:800) adsorbed to TM2 variant-immobilized magnetic beads, HRP-labeled anti-human IgG detection.

With TM2 D40NR104E, the Non-specific binding to serum protein (A450) is 0.56 A450.

Source of the values: patent publication US20110263824A1.
